Data taken from paper PMC12519218 (2025).

B1: ATRAP-HA [not stated] / GST-AP4μ^160–453 [not stated] (parent complex)
chain 1: MELPAVNLKVILLGHWLLTTWGCIVFSGSYAWANFTILALGVWAVAQRDSIDAISMFLGGLLATIFLDIVHISIFYPRVSLTDTGRFGVGMAILSLLLKPLSCCFVYHMYRERGGELLVHTGFLGSSQDRSAYQTIDSAEAPADPFAVPEGRSQDARGY
chain 2: QQSKVAPSSAASRPVLSSRSDQSQKNEVFLDVVERLSVLIASNGSLLKVDVQGEIRLKSFLPSGSEMRIGLTEEFCVGKSELRGYGPGIRVDEVSFHSSVNLDEFESHRILRLQPPQGELTVMRYQLSDDLPSPLPFRLFPSVQWDRGSGRLQVYLKLRCDLLSKSQALNVRLHLPLPRGVVSLSQELSSPEQKAELAEGALRWDLPRVQGGSQLSGLFQMDVPGPPGPPSHGLSTSASPLGLGPASLSFELPRHTCSGLQVRFLRLAFRPCGNANPHKWVRHLSHSDAYVIRI

Variants of: B1
Assay: GST pull-down, immunoblot quantification; bound protein normalized to the 2% loading; sum of both groups normalized to 1 in each replicate; n = 4, mean ± SD; parent: 0.71; read off a plot

response	Variant
~0.29	chain 1 Y133A
